The text below walks through data of US20090092595A1, “Suppression of sPLA2-integrin binding for treating an inflammatory condition” (REGENTS OF THE UNIVERSITY OF CALIFORNIA, priority 2007, published 2009).

The target of assay [1] is T1, recombinant soluble integrin αvβ3 (UniProt P06756 31-992; P05106 27-718).
T1 construct: Soluble heterodimer; whole entries named only; also called soluble αvβ3; soluble recombinant αvβ3
In words: SPR (Biacore), soluble αvβ3 amine-coupled to CM5 chip, sPLA2-IIA injected, 1 mM Mn2+, 1:1 binding with drifting baseline model. (In general: Surface plasmon resonance follows binding to a sensor surface in real time, without labels.)
Description: The mutant proteins were tested for binding to soluble integrin αvβ3.
Surface plasmon resonance study Recombinant soluble integrin αvβ3 was immobilized to Biacore Sensor chip CM5 (Biacore, Piscataway, N.J.) by the standard amine coupling method. […] Then the sensor chip was washed with the running buffer alone at the same flow rate for another 5 min (the dissociation phase). Two consecutive one-minute injections of 0.5 M, pH 8 EDTA solution at the same flow rate were used to regenerate the chip for another cycle of injection. The resonance unit elicited from the reference flow cell was subtracted from the resonance unit elicited from the integrin flow cell to eliminate the non-specific protein-flow cell interaction and the bulk refractive index effect. The recorded binding curves were fitted with the “1:1 binding with drifting baseline model” by using the Biaevaluation Version 4.1.

Assay [2] deals with T2, integrin α4β1 on K562 cells expressing recombinant α4β1 (α4-K562) and on U937 human monocytic lymphoma cells (human, UniProt P13612 34-1032; P05556 21-798).
T2 construct: whole, on cells; Recombinant α4 in K562 cells; endogenous α4β1 in U937 cells; Treated as one molecule (human α4β1 on cells); also called α4-K562 cells; U937 cells (α4β1+)
T2 sequence (P13612 34-1032, chain 1 of 2): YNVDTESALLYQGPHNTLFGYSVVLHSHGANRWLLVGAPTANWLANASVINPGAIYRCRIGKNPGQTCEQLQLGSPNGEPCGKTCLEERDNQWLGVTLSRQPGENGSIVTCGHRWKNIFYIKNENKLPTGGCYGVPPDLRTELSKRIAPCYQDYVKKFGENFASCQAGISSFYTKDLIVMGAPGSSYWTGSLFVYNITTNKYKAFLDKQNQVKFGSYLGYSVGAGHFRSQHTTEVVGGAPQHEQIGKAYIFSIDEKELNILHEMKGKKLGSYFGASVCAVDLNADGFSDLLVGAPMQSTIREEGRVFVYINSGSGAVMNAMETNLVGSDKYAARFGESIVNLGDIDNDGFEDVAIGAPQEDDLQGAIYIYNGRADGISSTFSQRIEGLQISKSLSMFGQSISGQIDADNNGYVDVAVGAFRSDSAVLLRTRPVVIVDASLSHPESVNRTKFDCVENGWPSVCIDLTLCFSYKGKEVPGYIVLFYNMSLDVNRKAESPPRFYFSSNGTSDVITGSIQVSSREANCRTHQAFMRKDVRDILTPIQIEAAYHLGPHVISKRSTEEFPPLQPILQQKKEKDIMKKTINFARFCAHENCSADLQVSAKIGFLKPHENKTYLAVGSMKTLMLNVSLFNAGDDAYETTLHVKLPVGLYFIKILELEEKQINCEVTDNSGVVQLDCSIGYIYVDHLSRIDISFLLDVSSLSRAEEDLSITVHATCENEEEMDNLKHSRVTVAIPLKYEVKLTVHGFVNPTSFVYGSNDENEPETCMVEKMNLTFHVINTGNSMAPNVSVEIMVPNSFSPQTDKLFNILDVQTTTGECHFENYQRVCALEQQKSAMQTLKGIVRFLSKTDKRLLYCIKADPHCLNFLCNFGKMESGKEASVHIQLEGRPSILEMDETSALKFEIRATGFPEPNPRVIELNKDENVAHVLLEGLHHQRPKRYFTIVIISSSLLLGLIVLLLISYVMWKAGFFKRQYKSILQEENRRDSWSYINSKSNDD
T2 sequence (P05556 21-798, chain 2 of 2): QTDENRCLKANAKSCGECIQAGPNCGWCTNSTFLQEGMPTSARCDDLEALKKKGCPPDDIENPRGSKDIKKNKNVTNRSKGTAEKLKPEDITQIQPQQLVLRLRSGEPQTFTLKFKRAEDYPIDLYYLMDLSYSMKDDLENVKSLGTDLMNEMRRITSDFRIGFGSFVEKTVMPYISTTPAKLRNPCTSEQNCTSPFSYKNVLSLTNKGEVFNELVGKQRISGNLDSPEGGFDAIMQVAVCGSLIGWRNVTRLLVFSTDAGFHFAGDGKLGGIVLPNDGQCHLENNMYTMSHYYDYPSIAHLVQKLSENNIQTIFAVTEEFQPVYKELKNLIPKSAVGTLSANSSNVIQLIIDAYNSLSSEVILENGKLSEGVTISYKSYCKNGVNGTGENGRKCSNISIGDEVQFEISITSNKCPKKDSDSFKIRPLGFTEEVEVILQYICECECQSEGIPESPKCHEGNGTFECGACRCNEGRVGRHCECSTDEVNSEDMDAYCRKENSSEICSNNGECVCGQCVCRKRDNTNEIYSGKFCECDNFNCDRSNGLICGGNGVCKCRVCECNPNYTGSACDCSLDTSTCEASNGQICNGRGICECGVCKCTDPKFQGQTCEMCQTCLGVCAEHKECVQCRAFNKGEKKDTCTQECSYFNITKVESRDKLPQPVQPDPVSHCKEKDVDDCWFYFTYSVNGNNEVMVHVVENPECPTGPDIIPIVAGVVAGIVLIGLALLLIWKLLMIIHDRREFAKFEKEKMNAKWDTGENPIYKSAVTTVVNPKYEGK
Briefly: cell adhesion of α4-K562 cells to coated sPLA2-IIA.

In assay [3] the target is T3, αvβ3 on β3-CHO cells (UniProt A0A9J7JSN3+P05106).
T3 construct: expressed in transfected cells; host or cells: CHO
T3 sequence (P05106 27-788): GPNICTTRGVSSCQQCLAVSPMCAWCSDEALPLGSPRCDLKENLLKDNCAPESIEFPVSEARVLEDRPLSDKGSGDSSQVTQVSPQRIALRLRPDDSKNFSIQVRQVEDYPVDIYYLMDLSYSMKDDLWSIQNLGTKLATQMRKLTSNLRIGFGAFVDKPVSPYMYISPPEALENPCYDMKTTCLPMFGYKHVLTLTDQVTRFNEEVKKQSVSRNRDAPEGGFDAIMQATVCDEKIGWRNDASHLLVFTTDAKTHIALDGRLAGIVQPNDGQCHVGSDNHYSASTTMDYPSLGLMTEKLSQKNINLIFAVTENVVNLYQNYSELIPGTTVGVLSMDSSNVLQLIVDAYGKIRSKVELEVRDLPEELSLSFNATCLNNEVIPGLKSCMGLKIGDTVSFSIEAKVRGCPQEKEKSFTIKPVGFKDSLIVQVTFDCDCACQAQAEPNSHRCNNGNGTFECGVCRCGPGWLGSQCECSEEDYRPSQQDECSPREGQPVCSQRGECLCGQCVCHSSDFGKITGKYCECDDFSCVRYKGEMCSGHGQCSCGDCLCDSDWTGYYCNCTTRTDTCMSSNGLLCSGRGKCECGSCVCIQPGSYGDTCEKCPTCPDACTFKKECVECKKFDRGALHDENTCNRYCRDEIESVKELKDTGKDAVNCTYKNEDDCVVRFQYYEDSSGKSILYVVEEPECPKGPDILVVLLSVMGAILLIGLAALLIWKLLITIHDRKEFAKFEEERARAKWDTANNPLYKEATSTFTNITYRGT
T3 sequence (A0A9J7JSN3 31-1043): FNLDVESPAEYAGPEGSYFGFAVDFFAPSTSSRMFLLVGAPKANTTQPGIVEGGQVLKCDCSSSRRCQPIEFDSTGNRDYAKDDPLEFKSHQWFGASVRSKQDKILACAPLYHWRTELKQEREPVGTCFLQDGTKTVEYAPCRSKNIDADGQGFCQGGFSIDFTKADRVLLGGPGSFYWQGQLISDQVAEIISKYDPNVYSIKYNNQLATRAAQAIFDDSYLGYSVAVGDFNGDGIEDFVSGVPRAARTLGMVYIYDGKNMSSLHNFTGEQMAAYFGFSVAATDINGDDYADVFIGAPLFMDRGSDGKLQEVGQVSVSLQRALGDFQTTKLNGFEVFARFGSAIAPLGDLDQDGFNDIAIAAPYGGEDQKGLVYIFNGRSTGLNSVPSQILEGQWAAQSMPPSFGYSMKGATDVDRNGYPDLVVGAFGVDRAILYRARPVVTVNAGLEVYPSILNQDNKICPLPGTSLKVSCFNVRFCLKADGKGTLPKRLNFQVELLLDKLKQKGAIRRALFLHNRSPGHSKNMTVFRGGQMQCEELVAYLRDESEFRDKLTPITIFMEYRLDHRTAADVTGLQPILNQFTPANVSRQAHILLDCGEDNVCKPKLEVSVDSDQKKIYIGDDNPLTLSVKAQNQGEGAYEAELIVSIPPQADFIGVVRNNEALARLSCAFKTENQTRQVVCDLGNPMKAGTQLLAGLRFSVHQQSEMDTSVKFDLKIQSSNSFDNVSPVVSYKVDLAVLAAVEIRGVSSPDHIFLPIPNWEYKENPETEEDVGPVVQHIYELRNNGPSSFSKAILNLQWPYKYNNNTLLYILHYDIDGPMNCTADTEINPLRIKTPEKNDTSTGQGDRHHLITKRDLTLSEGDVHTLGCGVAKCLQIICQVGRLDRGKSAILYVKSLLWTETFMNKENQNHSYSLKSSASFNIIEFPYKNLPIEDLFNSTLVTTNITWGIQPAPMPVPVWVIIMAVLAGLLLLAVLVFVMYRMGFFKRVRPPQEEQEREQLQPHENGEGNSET
Briefly: Binding of FITC-labeled sPLA2-IIA to αvβ3 on the cell surface (flow cytometry). The class given is cell-based, human. The following applies: 10 μg/ml, 10 mM Mg2+, room temperature, 30 min. From the text:
FIG. 1. sPLA2-IIA binding to integrin αvβ3. a) Cell adhesion to sPLA2-IIA in an αvβ3- and proteoglycans-dependent manner. Wells of a 96-well microtiter plate were coated with sPLA2-IIA at indicated coating concentrations. Remaining protein-binding sites were blocked with BSA. CHO cells expressing recombinant αvβ3 (β3-CHO), mock-transfected CHO cells, proteoglycans-deficient CHO cell variant (pgs745), expressing recombinant αvβ3 (β3-745), and mock-transfected pgs745 cells (10^5 cells per well in 100 μl Tyrodes-HEPES with 1 mM MgCl2) were added to the wells. After incubating for 1 h at 37° C., unbound cells were removed by gentle rinsing and bound cells were quantified using endogenous phosphatase activity (Prater, C. A. et al., J. Cell Biol., 112:1031-1040 (1991)). Data is shown as means+/−SEM of triplicate experiments. b) Effect of anti-(33 mAb 7E3 on adhesion of β3-CHO cells to immobilized sPLA2-IIA. […] Bound FITC (FL1) and PE (FL2) were quantified in flow cytometry. […] Bound αvβ3 was detected using peroxidase-conjugated anti-6His antibody. Bound peroxidase activity was measured. […]
Binding of FITC-labeled sPLA2-IIA to integrins on the cell surface sPLA2-IIA was labeled with FITC using Fluorescein labeling kit (Pierce) according to the manufacturer's instructions. […] Bound FITC (FL1) and PE (FL2) were quantified in flow cytometry.
(A flow cytometer gives signals particle by particle.)

T1 sequence (P06756 31-992, chain 1 of 2, one chain of several): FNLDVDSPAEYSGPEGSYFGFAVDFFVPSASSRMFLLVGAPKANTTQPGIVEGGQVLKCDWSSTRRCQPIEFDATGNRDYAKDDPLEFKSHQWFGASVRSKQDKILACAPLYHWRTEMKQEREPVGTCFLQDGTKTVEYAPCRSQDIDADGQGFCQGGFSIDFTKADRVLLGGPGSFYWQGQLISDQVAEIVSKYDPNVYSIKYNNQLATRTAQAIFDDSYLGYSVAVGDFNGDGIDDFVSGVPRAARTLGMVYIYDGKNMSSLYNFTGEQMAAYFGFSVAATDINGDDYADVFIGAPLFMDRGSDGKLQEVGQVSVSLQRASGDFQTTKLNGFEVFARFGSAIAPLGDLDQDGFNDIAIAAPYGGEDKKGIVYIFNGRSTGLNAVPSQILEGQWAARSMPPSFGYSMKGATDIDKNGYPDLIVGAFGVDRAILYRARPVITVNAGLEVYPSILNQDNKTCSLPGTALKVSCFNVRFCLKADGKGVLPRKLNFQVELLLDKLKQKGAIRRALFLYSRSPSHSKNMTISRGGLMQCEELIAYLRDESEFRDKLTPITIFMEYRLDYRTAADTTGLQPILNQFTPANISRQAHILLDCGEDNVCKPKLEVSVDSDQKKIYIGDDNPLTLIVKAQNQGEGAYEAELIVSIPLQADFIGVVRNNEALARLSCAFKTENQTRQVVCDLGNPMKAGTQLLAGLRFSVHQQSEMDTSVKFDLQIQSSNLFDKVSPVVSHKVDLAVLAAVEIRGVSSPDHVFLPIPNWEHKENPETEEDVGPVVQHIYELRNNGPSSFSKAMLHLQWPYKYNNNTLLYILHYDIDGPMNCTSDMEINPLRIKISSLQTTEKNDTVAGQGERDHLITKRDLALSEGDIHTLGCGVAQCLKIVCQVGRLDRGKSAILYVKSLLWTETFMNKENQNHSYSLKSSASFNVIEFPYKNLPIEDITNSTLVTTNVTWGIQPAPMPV

B1: wt sPLA2-IIA (secretory phospholipase A2 group IIA) (enzyme)
chain: NLVNFHRMIKLTTGKEAALSYGFYGCHCGVGGRGSPKDATDRCCVTHDCCYKRLEKRGCGTKFLSYKFSNSGSRITCAKQDSCRSQLCECDKAAATCFARNKTTYNKKYQYYSNKHCRGSTPRC
modifications: FITC label in the flow cytometry assay only (sites not given) ; FITC label (sites not given) in the flow cytometry assay only; the other assays used unlabelled protein.
notes: the form is read from the printed primers; also called FITC-sPLA2-IIA; FITC-labeled sPLA2-IIA; not shown: N-terminal vector-encoded residues with the His tag from the PET28a/amp vector (insert in the Bam HI site)
For the molecule B1, in assay [1], the Kd (commonly the concentration at which binding is half-saturated) stood at 211 nM. For the same molecule, the binding result in assay [2] is “binds”.

B2: FITC-sPLA2-IIA: sPLA2-IIA labeled with FITC using Fluorescein labeling kit (conjugate)
chain: NLVNFHRMIKLTTGKEAALSYGFYGCHCGVGGRGSPKDATDRCCVTHDCCYKRLEKRGCGTKFLSYKFSNSGSRITCAKQDSCRSQLCECDKAAATCFARNKTTYNKKYQYYSNKHCRGSTPRC
modifications: left off: small tags and cut ends
notes: sPLA2-IIA labeled with FITC using Fluorescein labeling kit
On to B2, for which the “binding to cells expressing high-level αvβ3 vs little αvβ3” value in assay [3] is listed as “much higher levels”.
